Patent US20160194388A1 (WASHINGTON UNIVERSITY, published 2016)

Columns and labels:
[1] = target: T1, human 14-3-3 epsilon isoform 1 (human, UniProt P62258 1-255); assay: flow cytometry on H23 cells
T1 construct: Endogenous protein of H23 human lung cancer cells; Mass spectrometry of the about 27 kDa band identified it as 14-3-3 epsilon, 255 amino acids; also called 14-3-3 protein epsilon; YWHAE
T1 sequence: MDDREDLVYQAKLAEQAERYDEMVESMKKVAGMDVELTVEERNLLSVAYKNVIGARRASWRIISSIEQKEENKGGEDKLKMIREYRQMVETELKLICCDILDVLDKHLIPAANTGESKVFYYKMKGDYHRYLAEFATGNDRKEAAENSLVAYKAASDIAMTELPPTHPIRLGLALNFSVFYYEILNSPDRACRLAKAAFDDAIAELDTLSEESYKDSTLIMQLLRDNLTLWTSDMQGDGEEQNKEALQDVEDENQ
Method: H23 cells were treated with radiation, 3Gy×3 or 0Gy sham. Cells were then treated with blocking buffer followed by the addition of the 7D4 anti-14-3-3 epsilon monoclonal antibody. Cells were then washed and stained with the secondary antibody conjugated to the fluorescent marker Alexa Fluor 488. Commercial rabbit anti-human 14-3-3 epsilon antibody was used as positive control. Negative controls included 7D4 without secondary antibody and normal mouse IgG with secondary antibody. Shown in FIG. 5 is the percentage of cells staining positive with the anti-14-3-3 antibodies as measured by flow cytometry (FACS).

[2] = target: T2, peptide comprising amino acids 177-194 of 14-3-3 epsilon isoform 1 (human); assay: ELISA, peptide coated, 7D4 at 5 µg/ml
T2 construct: Synthetic 18-mer (Sigma), coated on the ELISA plate
T2 peptide: FSVFYYEILNSPDRACRL
Method: (§1) Two batches of purified anti 14-3-3 epsilon monoclonal antibody 7D4 were used for testing all 31 peptides by ELISA. Three concentrations of each peptide had been used for coating ELISA plate at 30, 15, 10 μg/mL, 50 μl/each well were reacted against diluted purified antibodies at same concentration in all assay. Similar results were obtained for each peptide concentration coated on the ELISA plate.
(§2) Human 14-3-3 Protein epsilon and its isoform SV whole amino acid sequences were obtained through UniProtKB/Swiss-Prot. The Taxonomic identifier 9606 (NCBI) organism is Homosapiens (Human), Gene name is YWHAE. Peptide designed from whole sequences of 14-3-3 protein epsilon and its isoform 14-3-3 protein epsilon SV. The designed peptides contain 18AA from N terminal to C terminal and had 2AA overlapped in each peptide. A total of 31 peptides synthesized by Sigma. The synthesized peptide was prepared in DMSO and then further diluted in PBS for coating an ELISA plate. 30 μg/ml and 10 μg/ml of peptides in PBS were coated on ELISA plates, 50 μL/well. The plates incubated overnight at 4° C., were washed with 0.1% Tween20 PBS and blocked with 3% BSA in same buffer for 1 hour. […] After washing again, substrate ABTS was added to each well to monitor color change by reading at 405 nm in an ELISA reader (Bio-Tek Instrument Inc.). […]

[3] = target: T3, peptide comprising amino acids 145-162 of 14-3-3 epsilon SV (human); assay: ELISA, peptide coated, 7D4 at 5 µg/ml
T3 construct: Synthetic 18-mer (Sigma), coated on the ELISA plate
T3 peptide: HPIRLGLALNFSVFYYEI
Method: as §1, §2

[4] = target: T1, human 14-3-3 epsilon isoform 1; assay: FMAT on H23 cells, hybridoma supernatant

B1: anti-14-3-3 epsilon mouse monoclonal antibody 7D4 (antibody, V domains shown)
VH: QVQLQQSGAELMKPGASVKISCKATGYTFSSYWIEWVKQRPGHGLEWIGEILPGSGSTNYNEKFKGKATFTADTSSNTAYMQLSSLTSEDSAVYYCARSVWLRRDFAYWGQGTLVTVSA
VL: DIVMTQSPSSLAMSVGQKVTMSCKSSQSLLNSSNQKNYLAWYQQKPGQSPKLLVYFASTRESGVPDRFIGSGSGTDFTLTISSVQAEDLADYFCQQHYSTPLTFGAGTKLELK
notes: also called McAb 7D4; 7D4 mAb
fold increase in the percentage of cells staining positive after 3Gy×3 [1]: 20 fold
binding result [2]: binds
binding result [3]: binds
fold increase in binding on 3Gy×3 treated against sham 0Gy treated tumor cells [4]: 6 fold
